Results as given in paper PMC3642127, “Distinguishable In Vitro Binding Mode of Monomeric TRBP and Dimeric PACT with siRNA” (PLoS ONE, 2013).
Where a chain is given by its changes, count along the chain named.

Key:
[1] = target: T1, TRBP-WT (human, UniProt Q15633 1-366); test: EMSA; complex 1 (monomer); EMSA: 20 mM Tris pH 7.5, 150 mM NaCl, 2 mM EDTA, 1 mM 2-mercaptoethanol, 1 mM DTT, 50 ng/ul salmon sperm DNA, 0.4 U/ul RNasin, 0.5 nM 32P-siRNA, 30 min on ice; conditions: protein: recombinant, tags: N-His6;C-myc, label: 32P guide strand
T1 sequence: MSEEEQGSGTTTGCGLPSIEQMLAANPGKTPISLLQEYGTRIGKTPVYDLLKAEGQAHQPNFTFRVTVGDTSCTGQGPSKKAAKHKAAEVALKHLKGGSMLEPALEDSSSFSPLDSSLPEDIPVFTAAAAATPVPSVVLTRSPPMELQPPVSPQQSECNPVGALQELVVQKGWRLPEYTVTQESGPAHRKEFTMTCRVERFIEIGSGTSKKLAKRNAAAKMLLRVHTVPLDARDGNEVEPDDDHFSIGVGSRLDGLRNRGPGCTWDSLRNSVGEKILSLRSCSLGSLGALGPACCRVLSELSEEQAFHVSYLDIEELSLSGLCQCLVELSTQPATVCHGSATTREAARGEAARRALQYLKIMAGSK

[2] = target: T1, TRBP-WT; test: EMSA; EMSA: 20 mM Tris pH 7.5, 150 mM NaCl, 2 mM EDTA, 1 mM 2-mercaptoethanol, 1 mM DTT, 50 ng/ul salmon sperm DNA, 0.4 U/ul RNasin, 0.5 nM 32P-siRNA, 30 min on ice; conditions: protein: recombinant, tags: N-His6;C-myc, label: 32P
[3] = target: the molecule itself; test: native gel or EMSA; purified protein 0-1,300 nM with 0.5 nM 32P-labeled siRNA, 30 min on ice; 20 mM Tris pH 7.5, 150 mM NaCl, 2 mM EDTA, 1 mM 2-mercaptoethanol, 1 mM DTT, salmon sperm DNA, RNasin; 9% polyacrylamide gel; Kd from siRNA-binding curves; complex 2 = second protein molecule joining the protein-siRNA complex 1
[4] = target: T2, TRBP-ΔdsRBD3 (human, UniProt Q15633 1-292); test: EMSA; complex 1; EMSA: 20 mM Tris pH 7.5, 150 mM NaCl, 2 mM EDTA, 1 mM 2-mercaptoethanol, 1 mM DTT, 50 ng/ul salmon sperm DNA, 0.4 U/ul RNasin, 0.5 nM 32P-siRNA, 30 min on ice; conditions: protein: recombinant; tags: N-His6;C-myc; label: 32P guide strand; 2 nt 3' overhangs
T2 sequence: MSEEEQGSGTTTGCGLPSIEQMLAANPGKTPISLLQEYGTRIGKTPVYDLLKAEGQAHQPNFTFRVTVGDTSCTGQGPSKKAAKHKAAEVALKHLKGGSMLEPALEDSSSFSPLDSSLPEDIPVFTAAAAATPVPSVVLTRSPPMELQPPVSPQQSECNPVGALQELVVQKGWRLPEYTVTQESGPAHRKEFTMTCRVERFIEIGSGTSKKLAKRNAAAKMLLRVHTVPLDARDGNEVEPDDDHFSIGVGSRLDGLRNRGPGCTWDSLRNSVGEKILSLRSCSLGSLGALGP

[5] = target: T3, PACT-WT (N-terminal His- and C-terminal myc-tagged protein activator of PKR) (human), O75569; test: SEC; Superdex 200 HR 10/30; purified protein (TRBP proteins 1,300 nM, 330-1,300 nM in Figure S3; PACT concentration not stated) pre-incubated with siLuc-36 siRNA (300 nM) 30 min on ice; 20 mM Tris pH 7.5, 150 mM NaCl, 2 mM EDTA, 1 mM 2-mercaptoethanol, 1 mM DTT; fractions blotted with anti-myc; conditions: remark: other sources report otherwise
T3 chain: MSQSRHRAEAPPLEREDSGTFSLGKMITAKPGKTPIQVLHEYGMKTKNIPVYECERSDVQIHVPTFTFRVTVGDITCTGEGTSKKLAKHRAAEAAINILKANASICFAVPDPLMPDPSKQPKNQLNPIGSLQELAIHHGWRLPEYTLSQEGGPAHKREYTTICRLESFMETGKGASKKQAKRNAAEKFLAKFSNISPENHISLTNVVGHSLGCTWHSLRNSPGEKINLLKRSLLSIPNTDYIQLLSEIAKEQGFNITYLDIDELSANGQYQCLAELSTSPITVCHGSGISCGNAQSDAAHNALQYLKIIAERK

[6] = target: the molecule itself; test: as above

B1: siLuc-48 (dsRNA)
RNA 1: CCAGCGGUUCCAUCUUCCAGC
RNA 2: UGGAAGAUGGAACCGCUGGAG
Kd ([1]; 2 nt 3' overhangs): 33 nM

B2: siLuc-18 (dsRNA)
RNA 1: GGCGCCGGGCCUUUCUUUAUG
RNA 2: UAAAGAAAGGCCCGGCGCCAU
Kd ([1]; 2 nt 3' overhangs): 5.8 nM

B3: ssRNA_Luc2-153 (ssRNA)
RNA: UCGAAGUAUUCCGCGUACGUG
binding result ([2]; single strand): no binding

B4: siLuc-30 (dsRNA)
RNA 1: UCUUCAUAGAAUGGCGCCGGG
RNA 2: CGGCGCCAUUCUAUGAAGAUG
Kd ([1]; 2 nt 3' overhangs): 6.2 nM

B5: dsDNA_Luc-36 (dsDNA)
DNA 1: TCTTCCAGCGGATAGAATGGC
DNA 2: CATTCTATCCGCTGGAAGATG
binding result [2]: no binding

B6: TRBP-dsRBDmt1 (natural protein, human, UniProt Q15633 1-366, looked up)
chain: T1 sequence with K80A, K81A
notes: full length human TRBP with lysines 80 and 81 in dsRBD1 replaced with alanines; source: E. coli Rosetta (DE3) pLysS, purified (Ni-NTA agarose); not shown: His6, N-terminal, kept; myc, C-terminal, kept
binding result [3]: binds

B7: TRBP-dsRBDmt2 (natural protein, human, UniProt Q15633 1-366, looked up)
chain: T1 sequence with K210A, K211A
notes: full length human TRBP with lysines 210 and 211 in dsRBD2 replaced with alanines; source: E. coli Rosetta (DE3) pLysS, purified (Ni-NTA agarose); not shown: His6, N-terminal, kept; myc, C-terminal, kept
binding result [3]: binds

B8: ssRNA_Luc-36 (ssRNA)
RNA: UCUUCCAGCGGAUAGAAUGGC
binding result ([2]; single strand): no binding

B9: siLuc-1430 (dsRNA)
RNA 1: CGGCGGCGGGAAGUUCACCGG
RNA 2: GGUGAACUUCCCGCCGCCGUU
Kd ([1]; 2 nt 3' overhangs): 5.7 nM

B10: dsDNA_Luc2-153 (dsDNA)
DNA 1: TCGAAGTATTCCGCGTACGTG
DNA 2: CGTACGCGGAATACTTCGATT
binding result [2]: no binding

B11: siLuc2-153B (dsRNA)
RNA 1: UCGAAGUAUUCCGCGUACGUG
RNA 2: CACGUACGCGGAAUACUUCGA
Kd ([1]; blunt): 5.1 nM

B12: siLuc-36 (dsRNA)
RNA 1: UCUUCCAGCGGAUAGAAUGGC
RNA 2: CAUUCUAUCCGCUGGAAGAUG
Kd [4]: 5 nM | Kd ([1]; 2 nt 3' overhangs): 5.3 nM

B13: siLuc-36B (dsRNA)
RNA 1: UCUUCCAGCGGAUAGAAUGGC
RNA 2: GCCAUUCUAUCCGCUGGAAGA
Kd ([1]; blunt): 4.5 nM

B14: PACT-WT (N-terminal His- and C-terminal myc-tagged protein activator of PKR), O75569 1-313 (natural protein)
chain: T3 chain
stoichiometry N [5]: 2

B15: PACT-dsRBDmt2 (natural protein, human, UniProt O75569 1-313, looked up)
chain: T3 chain with K177A, K178A
notes: human PACT with lysines 177 and 178 in dsRBD2 replaced with alanines; source: E. coli Rosetta (DE3) pLysS, purified (Ni-NTA agarose); not shown: His6, N-terminal, kept; myc, C-terminal, kept
stoichiometry N [6]: 2

B16: PACT-dsRBDmt1 (natural protein, human, UniProt O75569 1-313, looked up)
chain: T3 chain with K84A, K85A
notes: human PACT with lysines 84 and 85 in dsRBD1 replaced with alanines; source: E. coli Rosetta (DE3) pLysS, purified (Ni-NTA agarose); not shown: His6, N-terminal, kept; myc, C-terminal, kept
stoichiometry N [6]: 2
